This is an account of results in patent publication CN114057881A (HANGZHOU XIANZHI BIOTECHNOLOGY CO LTD, dated 2022).

The experiment has as its target T1, 牛血清白蛋白 (bovine, UniProt P02769 25-607).
T1 construct: Carrier protein control, without ketamine, in the ELISA screen; also called BSA
Nature of the experiment: ELISA, BSA coated at 1 μg/mL, purified antibody, HRP secondary antibody, OD450. For orientation: ELISA stands for enzyme-linked immunosorbent assay.

T1 sequence (P02769 25-607 limits assumed): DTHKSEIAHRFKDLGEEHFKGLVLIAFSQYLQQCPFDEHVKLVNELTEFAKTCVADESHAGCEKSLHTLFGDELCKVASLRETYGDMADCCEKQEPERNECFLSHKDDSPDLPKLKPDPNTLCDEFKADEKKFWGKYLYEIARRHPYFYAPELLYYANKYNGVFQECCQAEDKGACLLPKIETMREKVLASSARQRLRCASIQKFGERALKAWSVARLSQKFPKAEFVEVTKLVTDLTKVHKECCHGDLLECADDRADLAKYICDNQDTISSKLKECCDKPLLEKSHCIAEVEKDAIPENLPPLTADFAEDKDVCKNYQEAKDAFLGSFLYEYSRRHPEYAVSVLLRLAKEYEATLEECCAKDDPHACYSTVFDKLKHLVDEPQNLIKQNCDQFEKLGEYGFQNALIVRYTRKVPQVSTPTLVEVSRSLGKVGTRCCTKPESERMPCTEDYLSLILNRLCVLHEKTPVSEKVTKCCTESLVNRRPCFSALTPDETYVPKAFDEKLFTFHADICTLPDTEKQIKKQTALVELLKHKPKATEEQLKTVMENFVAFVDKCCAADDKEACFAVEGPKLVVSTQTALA

B1: 抗氯胺酮(KET)特异性抗体6B2 (antibody, V domains shown)
VH: EVQLQQSGAELLKPGASVKLSCTASGFNIKDTYIHWVKQRPEQGLEWIGRIDPANGHTYYDPQFQGKATLTADTSSNTAYLQLSSLTSEDSAIYYCARFGEDWGQGTLVTVSA
VL: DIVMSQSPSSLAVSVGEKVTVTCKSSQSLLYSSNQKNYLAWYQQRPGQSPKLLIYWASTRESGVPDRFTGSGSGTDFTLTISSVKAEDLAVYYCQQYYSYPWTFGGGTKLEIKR
notes: also called 6B2单抗
Regarding B1, the binding result is “no binding”.

B2: 抗氯胺酮(KET)特异性抗体4A1 (antibody, V domains shown)
VH: EVRLEESGGGLVQPGGSMKLSCVASGFTFSNYWMNWVRQSPEKGLEWVDEIKLKSNNYETHCVESVKGRFTISRDDSKSSVYLQMNNLRAEDTGIYYCARRGYGTYYAMDYWGQGTSVIVSS
VL: DVQITQSPSYLAASPGETITINCRASKSIRKYLAWYQEKPGKTNKLLIYSGSTLRSGTPSRFSGSGSGTDFTLTISSLEPEDFAMYYCQQHNEYPYTFGGGTKLEIKR
notes: also called 4A1单抗
Regarding B2, the binding result is “no binding”.
